Results: the RNAGym collection of RNA variant scans (doi:10.1021/acssynbio.7b00057)

B1: Pistol ribozyme (parent)
chain: GGGUCGUUGUUCCAUAAUCGCGUGGAUAUGGCACGCAAGUUUCUACCGGGCACCGUAAAUGUCCGACUGGAGCCGUUCGGGCGGCUAUAAACAGACCUCAGGCCCGAAGCGUGGCGGCACCUGCCGCCGGUGGUAAAAAAGAUCGGAAGAGCACACGUCU

Variants of: B1
Experiment: aptazyme ON/OFF ratio, guanine; higher = stronger switching; co-transcriptional cleavage with and without guanine

Variant	aptazyme ON/OFF ratio
U7A U8A G9A U10A C13U	1.17
U7G G9C U10C C12A C13A	1.16
U8C U10G C12A	1.12
U10A U11C C13U	1.01
U7G U8C U10A U11G C12G C13A	1.22
U7G G9A U10C U11A C12U C13U	1.04
U10A U11A C12U C13A	1.54
U8C G9C U11C C12U C13A	1.05
U7G U8C U11C C12A C13U	1.46
U7G U8G G9C U10G C12G C13U	1.2
U7G U8G G9A U11G C12U	1.5
U7G U8G U10A U11C C12A C13A	1.34
U7G U8G U10G U11G C12U C13A	1.13
G9U U10A C12A C13G	0.84
U7A U8G U10A U11C C12U	1.29
U8A G9U U10G U11G C12G C13U	1.34
U7A U8G G9C U11C C13U	1.44
U8A G9A U10A U11G C12G C13A	1.21
U7C U8A G9C U10A U11C C12U C13A	1.18
U7A U8C G9A U10G C12A C13U	1.19
U8C G9U U10C U11C C12A C13G	1.62
U7C U8C G9U C12A	1.36
U7C G9C U10G U11G C13G	1.11
U7C G9C U10C U11C C12U C13U	1.01

Variant	aptazyme ON/OFF ratio
U7G G9C U11G C12A C13G	1.31
U8G G9U U10G C12U C13G	1.02
U7C U8A G9C U10C U11G C12U	1.08
U7G U10C C12A C13A	1.1
U7A G9U U10G C12A C13U	1.3
U8G G9A U10C C12U C13A	1.14
U7A U8A G9U C12A C13U	1.52
U8G G9C U11C C13G	1.04
U7C U8A G9A U10C U11G	1.32
U7C U8A G9A U10G C12G C13A	1.1
U7A U8G C12G C13G	1.27
U7C U8A G9A U11C C12A C13U	1.28
U7C G9C U10A U11A C12U C13G	1.06
U7A G9C U10C U11G C12G C13G	1.17
U7C U8A U10A U11A C12G	1.2
U8G G9U U10G U11C C12U	1.04
U7G U8G U10C C12G	1.09
U7C U11A C12U	1.18
U7A U8A U10A U11G C12U C13G	1.15
U8C U10C U11C C12A	1.25
U8A G9U U10G U11G C12A C13A	1.16
U8G C12U C13U	1.18
U7A U8A G9U U10G C13U	1.36
U7C U8G G9C U11A C12U C13G	1.09

Variant	aptazyme ON/OFF ratio
U7C G9U U10A C12A C13A	1.37
U7A U8C G9C U10C U11C C12A C13G	1.03
U7A U8C G9U U10G U11C C13U	1.03
U7G U8G G9C U10A U11A C12U	1.07
U7A G9A U10A U11G C12G C13G	1.44
U7A U8A G9A U10G U11C C12A C13A	1.17
U7G U11C C13U	1.07
U7G U8G G9C U10A C13G	1.01
U8C G9A U10C U11C C12A C13U	1.1
U7A U8C G9A U10C U11G C13U	1.46
G9C U10A U11A C12U C13G	1.14
U7A U10C U11A C12U	1.3
U7G U8C G9C U10C U11A C13U	1.03
U7G U8C U11C C12A	1.69
U10G C13G	1.32
U7G G9U U10A U11A C12G C13A	1.13
U7A G9A U10C C12A	1.43
U7A U8A U10A U11C C13U	0.989
U7A G9A U10G U11A C12U	1.05
U7G U8G G9A U10A U11G C12A C13A	1.13
U7C U8A G9U U10A U11C	1.05
U7G U8G G9A U10C U11A C13A	1.2
U7G G9A U11C C12A C13U	1.26
U7G G9U U11A	1.42

Variant	aptazyme ON/OFF ratio
U8C G9C U11C C12G C13G	1.26
U7G U8A U10A U11C C12U C13U	1.19
G9A U10G U11C	1.1
U7G U8G G9C U10A U11A C12A	1.07
U7A U8A G9A C12G C13G	1.12
U7C G9C U10G C13U	1.07
U8G G9U U10A C12A C13U	1.25
U7A U8C G9U U10C U11G C12U C13U	1.18
U7C U8A G9U U10A U11G C12A	1.08
U7C G9U U10G U11A C12A C13U	1.44
U8A U10C U11C	1.01
U7C U8A G9A C13G	1.06
U7G U8G G9U U11C C12G	1.43
U7C U10G U11A C12A	1.13
U10G U11A	1.12
U7A U8C G9A U10G U11A C12U	1.04
U7G U8A U10C C12U C13G	1.26
U7A U8C U11C C12A C13A	1.44
U8G G9C U10A U11G C12G C13A	1.35
U7A U10A U11A C12U	1.2
U7A U8C G9A U11A C12G	1.26
U8A G9U U10C U11A C12A C13A	1.14
U7G U8C G9C U10G C12G C13A	1.09
U7A U8G G9C U11C C12A C13G	1.18

Variant	aptazyme ON/OFF ratio
U7A U10G U11A C12A	1.36
G9U U10A U11G C12U C13A	1.21
U7G U8G G9A U11A C12U C13G	1.12
U7C U8A G9A C12U C13U	1.18
U7C U8G G9A U11A C12G C13A	1.12
U8A U11C C12U C13G	1.33
U7A C12A C13U	1.22
U7C G9U U11A C12A C13G	1.1
U7G G9U U10A U11C C12U C13G	1.27
U7C U8A G9C U10A	1.74
U7G G9U U10C U11G C13U	1.38
U7C U8A U10A C13U	1.06
U7A U8A U10C U11A C13U	1.05
U8G G9U U10A C12G C13A	1.2
U7A U8C G9C U10C U11C C12G C13A	1.02
U8G U10C U11A C12U C13A	1.14
U7G U8C G9C U10C U11A C12U C13G	1.12
U7C G9U U11C C12G C13G	1.06
U7C U8G U10C C12A	2.01
U8C G9U U11G C13A	1.24
U7G U8A U10A U11A C12A C13G	1.18
U10C U11G C12G C13G	1.23
U7C U8G U11A C12G C13U	1.09
G9U U10C U11C C12G C13G	1.11

Variant	aptazyme ON/OFF ratio
U7G U8A G9A U10C U11C C12U C13G	1.02
U8C G9A U11C C12G C13G	1.26
U7C G9A U10C U11A C12G C13U	1.18
U8G G9A U10G U11G C12A	1.32
U8A U10A C12U C13G	1.13
U7C U8G G9C U10G C12U C13G	1.14
U7C U8A G9A C12G	1.26
G9U U10G U11G C12A C13U	1.38
U8G G9A U10G U11A C12A C13U	1.48
U7A U8A U10G C12A C13U	1.19
U8G G9C U10G U11C C13A	1.05
U7C U8C G9U U11C C12A C13A	1.06
U7C U8C G9A U10A C12A C13G	1.12
U7A U8A U10A U11A C12G C13A	1.05
U8A G9C U10G U11A C12A C13U	1.21
G9C U10C U11A C13U	1.07
U8A U10G U11C C12G C13G	1.25
U8G G9C U10G U11G C12G C13A	1.24
U7A U8A G9U U10C U11A C13G	1.17
U7C G9A U10A C13U	1.34
U7C U8C G9A U10A C12G C13U	1.16
U7C U8C C13U	1.56
U7A U8G G9U U10C C12G C13A	1.39
U7G G9A U10G C12G C13A	1.1

Variant	aptazyme ON/OFF ratio
U7A U8G G9C U10C U11A C12G	1.23
G9C U10A U11A C12A C13G	1.21
U7C U8G U11G C12G C13G	1.08
U8G U10C U11G C12G C13A	1.17
G9U U10C U11C C12A C13U	1.2
U7G U8A U10A U11G C13G	1.36
U7A U8C G9C U11A C12A C13A	1.07
U7C U8A G9C U10C U11A C13U	1.13
U7G U8G U10A C12G C13U	0.978
U7G G9U U10G U11A C12A C13A	1.16
U8G G9C C13A	1.04
U7C U8G G9C U10C U11G C12U C13A	1.07
U7A U8G G9C U10A U11A C13A	1.15
U7A G9U U10C U11G C12U C13A	1.15
U8G G9A U10A U11G C12U C13U	1.56
U7G U8A U11A C12A C13U	1.39
U8C G9A U10A U11G C12A C13A	1.1
U8G G9C U10A C12A C13G	1.12
U10G U11G C12G C13A	1.1
U7G G9A U10G U11C C12A C13A	1.09
U7C U8C G9C U11A C12G C13G	1.07
U7G U8C G9U C12G	3.03
U7A U8G G9C U10A U11G C12U C13G	1.26
